Data on 1 molecule can be found in publication PMC12616241 (2025).

Holding throughout (test): SPR
Background: SPR reads the build-up and loss of mass on a sensor chip optically.

One assay addresses FcγRIIa-R131.
The target in a further assay is FcγRIIa-H131.
In assay [1] the target is FcγRIIIa-F158 (His-tagged recombinant) (human, UniProt P08637 17-208).
Assay [2] has as its target FcγRIIIa-V158 (His-tagged recombinant) (human).

Sequence of FcγRIIIa-V158 (His-tagged recombinant) (human) (chain, as listed by the source): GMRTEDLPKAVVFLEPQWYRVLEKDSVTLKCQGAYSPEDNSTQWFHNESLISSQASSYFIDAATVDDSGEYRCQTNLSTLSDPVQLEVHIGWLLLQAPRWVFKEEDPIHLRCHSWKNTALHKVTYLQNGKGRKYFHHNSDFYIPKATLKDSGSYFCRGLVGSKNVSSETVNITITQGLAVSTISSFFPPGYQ
Sequence of FcγRIIIa-F158 (His-tagged recombinant) (P08637 17-208): as the sequence (chain, as listed by the source) above, with V160F counted along it

B1: margetuximab (antibody)
chain 1: QVQLQQSGPELVKPGASLKLSCTASGFNIKDTYIHWVKQRPEQGLEWIGRIYPTNGYTRYDPKFQDKATITADTSSNTAYLQVSRLTSEDTAVYYCSRWGGDGFYAMDYWGQGASVTVSS
chain 2: DIVMTQSHKFMSTSVGDRVSITCKASQDVNTAVAWYQQKPGHSPKLLIYSASFRYTGVPDRFTGSRSGTDFTFTISSVQAEDLAVYYCQQHYTTPPTFGGGTKVEIK
Turning to B1, the Kd with FcγRIIa-R131 was found to be 1440 nM; with FcγRIIa-H131, 764 nM; in assay [1] it was 113 nM; in assay [2], 91.7 nM.

The Kd is the equilibrium constant for the complex coming apart.
